# Measured values published in patent EP2467164A2 (dated 2012).
# B1: Ab #3 (antibody, V domains shown)
# VH: EVQLLESGGGLVQPGGSLRLSCAASGFTFSAYNMRWVRQAPGKGLEWVSVIYPSGGATRYADSVKGRFTISRDNSKNTLYLQMNSLRAEDTAVYYCARGYYYYGMDVWGQGTLVTVSS
# VL: QSVLTQPPSASGTPGQRVTISCSGSDSNIGRNYIYWYQQFPGTAPKLLIYRNNQRPSGVPDRISGSKSGTSASLAISGLRSEDEAEYHCGTWDDSLSGPVFGGGTKLTVL
# B2: Ab #6 (antibody, V domains shown)
# VH: EVQLLESGGGLVQPGGSLRLSCAASGFTFSHYVMAWVRQAPGKGLEWVSSISSSGGWTLYADSVKGRFTISRDNSKNTLYLQMNSLRAEDTAVYYCTRGLKMATIFDYWGQGTLVTVSS
# VL: QSALTQPASVSGSPGQSITISCTGTSSDVGSYNVVSWYQQHPGKAPKLIIYEVSQRPSGVSNRFSGSKSGNTASLTISGLQTEDEADYYCCSYAGSSIFVIFGGGTKVTVL
# notes: also called MM-121; anti-ErbB3 antibody Ab #6
# B3: betacellulin (ligand, UniProt P35070 32-111, looked up)
# chain: DGNSTRSPETNGLLCGDPEENCAATTTQSKRKGHFSRCPKQYKHYCIKGRCRFVVAEQTPSCVCDEGYIGARCERVDLFY
# modifications: biotinylated in the FACS assay of Example 7 (site not stated)
# notes: also called BTC; biotinylated BTC
# Legend:
# [1] = target: T1, ErbB3 expressed on MALME-3M melanoma cells (human, UniProt P21860 20-1342); assay: cell binding assay on MALME-3M cells, flow cytometry, one-site model
# T1 construct: Endogenous ErbB3 of the MALME-3M cell line; also called ErbB3 on MALME-3M cells
# recombinant ErbB3 = target: T2, recombinant ErbB3 (human, UniProt P21860 20-643); assay: surface plasmon resonance, antibody as ligand, recombinant ErbB3 as analyte
# T2 construct: also called HER3
# ErbB3 = target: T3, ErbB3 (human, UniProt P21860 20-643, limits assumed); assay: KinExA
# T3 construct: also called ErbB3 domain; HER3
# ErbB3 on AdrR cells = ErbB3 on AdrR cells (human, UniProt P21860 20-1342); assay: cell-based or functional assay
# ErbB1 on AdrR cells = target: T4, ErbB1 on AdrR cells (UniProt P00533 25-1210, limits assumed); assay: flow cytometry, biotinylated BTC (Figure 15)
# T4 construct: whole, on cells; also called EGFR; ErbBl
Binder,Kd [1],Kd (recombinant ErbB3),Kd (ErbB3),koff (ErbB3),kon (ErbB3),BTC-induced ErbB3 phosphorylation in AdrR cells (IC50) (ErbB3 on AdrR cells),HRG-induced ErbB3 phosphorylation in AdrR cells (IC50) (ErbB3 on AdrR cells),binding result (ErbB1 on AdrR cells)
B1,~1.3 nM,~8 nM,,,,,,
B2,~4 nM,~4 nM,0.769 nM,0.00011 s⁻¹,143000 M⁻¹ s⁻¹,5.9 nM,2.4 nM,
B3,,,,,,,,binds
